Marks after values point to notes of the source that are not given here.
Experiments:
UvrA = target: T1, UvrA (Thermotoga maritima, UniProt Q9WYV0); assay: ATPase, EnzChek phosphate assay (MESG/PNP, […] nm); type: biochemical; settings: 1 µM echinomycin-DNA or DNA, 50 mM HEPES pH 7.5, 50 mM NaCl, 10 mM MgCl2, 22 °C
T1 construct: pET28a(+) construct, E. coli Rosetta (DE3) pLysS, His-Trap purified, no tag cleavage mentioned
T1 sequence (Q9WYV0 1-916): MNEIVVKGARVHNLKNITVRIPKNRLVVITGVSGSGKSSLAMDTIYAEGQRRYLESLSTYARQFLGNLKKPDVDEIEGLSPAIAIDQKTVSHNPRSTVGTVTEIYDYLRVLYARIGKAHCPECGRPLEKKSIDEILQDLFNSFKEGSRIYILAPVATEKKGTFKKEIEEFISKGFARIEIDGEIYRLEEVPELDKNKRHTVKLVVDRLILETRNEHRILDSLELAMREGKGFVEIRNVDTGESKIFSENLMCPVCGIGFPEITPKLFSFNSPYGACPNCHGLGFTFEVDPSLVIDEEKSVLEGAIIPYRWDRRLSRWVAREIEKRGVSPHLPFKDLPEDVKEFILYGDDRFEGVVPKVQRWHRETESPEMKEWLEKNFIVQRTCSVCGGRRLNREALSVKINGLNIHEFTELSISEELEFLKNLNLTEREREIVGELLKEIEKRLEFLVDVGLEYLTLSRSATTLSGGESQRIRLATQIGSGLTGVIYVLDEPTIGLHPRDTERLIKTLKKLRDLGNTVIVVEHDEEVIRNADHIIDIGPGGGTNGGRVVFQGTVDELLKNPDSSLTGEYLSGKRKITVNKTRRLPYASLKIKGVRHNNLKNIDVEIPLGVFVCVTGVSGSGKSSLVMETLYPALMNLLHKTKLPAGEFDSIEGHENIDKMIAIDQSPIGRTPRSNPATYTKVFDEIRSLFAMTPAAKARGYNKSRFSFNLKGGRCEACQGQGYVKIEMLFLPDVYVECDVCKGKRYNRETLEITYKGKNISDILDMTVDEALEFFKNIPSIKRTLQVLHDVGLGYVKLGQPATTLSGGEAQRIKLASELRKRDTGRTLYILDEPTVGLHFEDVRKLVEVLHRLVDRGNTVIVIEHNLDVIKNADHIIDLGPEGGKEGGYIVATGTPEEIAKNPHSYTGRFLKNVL

Ecm16 [1] = target: Ecm16 (Streptomyces lasalocidi, UniProt Q0X0A9); settings: 1 µM echinomycin-DNA or DNA, 50 mM HEPES pH 7.5, 50 mM NaCl, 10 mM MgCl2, 22 °C
[2] = target: Ecm16* (Streptomyces lasalocidi (insertion domain from Streptomyces peucetius DrrC)) (UniProt Q0X0A9); assay: fluorescence polarization; settings: apparent KD, Hill fit, FP: 50 mM HEPES pH 7.5, 50 mM NaCl, 50 nM DNA, 4-512 nM protein, temperature not stated, EMSA: same buffer plus 0.1 mg/ml BSA
[3] = target: the molecule itself; assay: crystal structure; hanging drop vapour diffusion at 18 °C; 8 mg/ml Ecm16, 10 mM MgCl2, 1 mM ADP mixed with 0.1 M MES pH 6.5, 0.2 M sodium thiocyanate, 12% PEG 20K; 2.0 Å; homodimer in the model
Ecm16 [4] = target: T2, Ecm16 (Streptomyces lasalocidi, UniProt Q0X0A9 1-792); assay: fluorescence polarization; echinomycin-bound DNA; apparent KD, Hill fit; FP: 50 mM HEPES pH 7.5, 50 mM NaCl, 50 nM DNA, 4-512 nM protein, temperature not stated; EMSA: same buffer plus 0.1 mg/ml BSA, 50 nM DNA, echinomycin:DNA 1.1:1, 15 min at room temperature, 6% native gel at 4 °C; settings: protein: recombinant; tags: His (pET28a, Ni-NTA); chain copies: 2; label: 5'-FAM on both strands; blunt; self-complementary
T2 sequence: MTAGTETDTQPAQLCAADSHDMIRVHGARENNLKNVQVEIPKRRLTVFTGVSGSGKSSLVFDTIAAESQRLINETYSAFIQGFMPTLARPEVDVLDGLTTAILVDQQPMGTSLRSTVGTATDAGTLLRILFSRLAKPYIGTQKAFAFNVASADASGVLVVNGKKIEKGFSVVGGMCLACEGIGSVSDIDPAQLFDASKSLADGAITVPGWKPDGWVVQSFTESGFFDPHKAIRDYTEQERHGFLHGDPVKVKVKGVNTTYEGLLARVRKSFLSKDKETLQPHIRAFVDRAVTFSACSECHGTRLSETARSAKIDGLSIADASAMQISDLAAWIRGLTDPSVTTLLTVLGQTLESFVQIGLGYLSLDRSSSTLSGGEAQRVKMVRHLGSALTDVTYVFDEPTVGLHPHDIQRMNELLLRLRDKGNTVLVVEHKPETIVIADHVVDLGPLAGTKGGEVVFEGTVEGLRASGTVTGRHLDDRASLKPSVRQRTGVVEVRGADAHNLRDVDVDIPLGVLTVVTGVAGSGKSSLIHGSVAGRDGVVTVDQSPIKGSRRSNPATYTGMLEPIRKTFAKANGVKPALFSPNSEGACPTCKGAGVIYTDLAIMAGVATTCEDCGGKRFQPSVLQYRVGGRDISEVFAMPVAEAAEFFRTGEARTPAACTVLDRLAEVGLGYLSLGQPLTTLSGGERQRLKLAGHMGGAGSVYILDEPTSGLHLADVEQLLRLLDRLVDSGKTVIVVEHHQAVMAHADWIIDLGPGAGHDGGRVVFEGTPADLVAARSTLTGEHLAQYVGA

Ecm16 [5] = target: T2, Ecm16; assay: fluorescence polarization; no echinomycin; apparent KD, Hill fit; FP: 50 mM HEPES pH 7.5, 50 mM NaCl, 50 nM DNA, 4-512 nM protein, temperature not stated; EMSA: same buffer plus 0.1 mg/ml BSA, 50 nM DNA, echinomycin:DNA 1.1:1, 15 min at room temperature, 6% native gel at 4 °C; settings: protein: recombinant; tags: His (pET28a, Ni-NTA); chain copies: 2; label: 5'-FAM on both strands; blunt; self-complementary

Nc1ncnc2c1ncn2[C@@H]1O[C@H](COP(=O)(O)OP(=O)(O)OP(=O)(O)O)[C@@H](O)[C@H]1O [ATP]
ATPase, EnzChek phosphate assay (MESG/PNP, 360 nm) (UvrA): Ecm16* and UvrA showed a similar basal ATPase activity for all four DNA substrates | ATPase, EnzChek phosphate assay (MESG/PNP, 360 nm) (Ecm16 [1]): we measured the ATP hydrolysis activity of Ecm16, Ecm16-ΔID, Ecm16*, and UvrA

AGTGATCAGTGGTTACGTAACCACTGATCACT (double strand) [FAM 32-bp DNA]
Kd ([2]; echinomycin-bound DNA): 37.7 nM | Kd ([2]; no echinomycin): 90.8 nM

B1: Ecm16 from Streptomyces lasalocidi (natural protein)
chain: MTAGTETDTQPAQLCAADSHDMIRVHGARENNLKNVQVEIPKRRLTVFTGVSGSGKSSLVFDTIAAESQRLINETYSAFIQGFMPTLARPEVDVLDGLTTAILVDQQPMGTSLRSTVGTATDAGTLLRILFSRLAKPYIGTQKAFAFNVASADASGVLVVNGKKIEKGFSVVGGMCLACEGIGSVSDIDPAQLFDASKSLADGAITVPGWKPDGWVVQSFTESGFFDPHKAIRDYTEQERHGFLHGDPVKVKVKGVNTTYEGLLARVRKSFLSKDKETLQPHIRAFVDRAVTFSACSECHGTRLSETARSAKIDGLSIADASAMQISDLAAWIRGLTDPSVTTLLTVLGQTLESFVQIGLGYLSLDRSSSTLSGGEAQRVKMVRHLGSALTDVTYVFDEPTVGLHPHDIQRMNELLLRLRDKGNTVLVVEHKPETIVIADHVVDLGPLAGTKGGEVVFEGTVEGLRASGTVTGRHLDDRASLKPSVRQRTGVVEVRGADAHNLRDVDVDIPLGVLTVVTGVAGSGKSSLIHGSVAGRDGVVTVDQSPIKGSRRSNPATYTGMLEPIRKTFAKANGVKPALFSPNSEGACPTCKGAGVIYTDLAIMAGVATTCEDCGGKRFQPSVLQYRVGGRDISEVFAMPVAEAAEFFRTGEARTPAACTVLDRLAEVGLGYLSLGQPLTTLSGGERQRLKLAGHMGGAGSVYILDEPTSGLHLADVEQLLRLLDRLVDSGKTVIVVEHHQAVMAHADWIIDLGPGAGHDGGRVVFEGTPADLVAARSTLTGEHLAQYVGA
notes: Ecm16, UvrA-like self-resistance protein of the echinomycin biosynthetic gene cluster, Streptomyces lasalocidi (formerly S. lasaliensis); codon-optimised gene in pET28a(+) between NdeI and EcoRI; cloning by NdeI into pET28a(+) would put a His tag on the N-terminus (surmised); also called WT Ecm16; echinomycin resistance conferring protein Ecm16; source: E. coli BL21 (DE3), purified (Ni-NTA, …)
stoichiometry N [3]: 2

B2: FAM 32-bp DNA (dsDNA)
DNA 1: AGTGATCAGTGGTTACGTAACCACTGATCACT
DNA 2: AGTGATCAGTGGTTACGTAACCACTGATCACT
Kd (Ecm16 [4]): 11.8 ± 1.7 nM | Kd (Ecm16 [5]): 60.2 ± 2.1 nM

— PMC10192343, “Structural and functional analyses of the echinomycin resistance conferring protein Ecm16 from Streptomyces lasalocidi” (Scientific Reports, 2023)
